Results: patent US20190106487A1 (Sanofi, published 2019)
Substitutions are numbered along the chain they refer to. One block for each binder: values may come before it.

What was measured:
[1] = molecular target: T1, human IL-1RAcP on 293T/17-FR cells (human, UniProt Q9NPH3 21-570); assay: cell-based or functional assay
T1 sequence (looked up): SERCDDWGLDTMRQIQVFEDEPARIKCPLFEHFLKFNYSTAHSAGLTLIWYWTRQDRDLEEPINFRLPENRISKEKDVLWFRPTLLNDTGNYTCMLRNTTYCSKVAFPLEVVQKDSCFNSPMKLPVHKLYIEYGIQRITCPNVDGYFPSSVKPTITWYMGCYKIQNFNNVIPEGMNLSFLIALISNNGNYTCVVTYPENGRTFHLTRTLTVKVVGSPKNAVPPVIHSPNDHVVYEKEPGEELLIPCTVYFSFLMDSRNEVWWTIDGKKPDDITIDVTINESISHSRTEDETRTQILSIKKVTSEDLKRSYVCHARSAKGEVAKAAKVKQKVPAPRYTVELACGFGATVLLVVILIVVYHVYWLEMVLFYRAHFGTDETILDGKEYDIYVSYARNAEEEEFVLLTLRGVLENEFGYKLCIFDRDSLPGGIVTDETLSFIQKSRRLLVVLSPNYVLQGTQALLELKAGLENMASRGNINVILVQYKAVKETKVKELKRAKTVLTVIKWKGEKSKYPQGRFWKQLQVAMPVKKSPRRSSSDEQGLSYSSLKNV

[2] = molecular target: T2, rhIL-1RAcP/Fc Chimera (human, UniProt Q9NPH3 21-359); assay: ELISA, recombinant purified mAb
T2 construct: also called P013_03; P013-03
T2 sequence (looked up): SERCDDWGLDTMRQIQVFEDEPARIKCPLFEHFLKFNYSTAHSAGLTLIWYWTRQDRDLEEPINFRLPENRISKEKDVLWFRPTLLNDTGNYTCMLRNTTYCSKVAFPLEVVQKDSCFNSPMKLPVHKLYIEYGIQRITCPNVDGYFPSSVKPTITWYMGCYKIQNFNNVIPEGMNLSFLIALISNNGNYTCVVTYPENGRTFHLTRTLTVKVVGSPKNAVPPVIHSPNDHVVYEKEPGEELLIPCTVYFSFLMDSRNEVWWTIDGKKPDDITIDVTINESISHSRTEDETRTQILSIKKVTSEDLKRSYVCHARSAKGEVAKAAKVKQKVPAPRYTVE

[3] = molecular target: T2, rhIL-1RAcP/Fc Chimera; assay: ELISA, primary supernatant, coated hu-IL-1RAcP-Fc
From the text: Microtiter plates were coated IL-1RACP and/or IL12Rβ1 protein (recombinant Fc chimeric conjugates of human IL-1RACP or IL12Rβ1). After a blocking process, specific antibodies from B-cell supernatants bind to the targets and are then detected by a POD-labeled anti-rabbit IgG antibody. The IL12Rβ1 binding was used as a counterscreen. IL-1RACP protein was tagged with a linker, huFc and His like the IL12Rβ1 protein. Antibodies which bind to the tag were positive in both assays, whereas antigen specific antibodies just bound to IL-1RACP and not to IL12Rβ1.
12.5 μL 0.5 μg/mL IL-1RACP protein in PBS was transferred to a microtiter plate, incubated and washed 3× with Wash Buffer. 90 μL Block Buffer was added to each well, incubated and washed. 12.5 μl Standard Antibody (rabbit mAb against IL-1RAcP, anti IL12Rbeta1 antibody: IL-12Rbeta1 antibody; GeneTex; Cat. No. GTX103917) or sample diluted in ELISA buffer was added, incubated and washed. 12.5 μl 1:5000 POD-Antibody (Anti-rabbit IgG, peroxidase-linked species-specific Fab2 fragment (from donkey) (ECL); assay dilution: 1:5000) in Elisa Buffer was added, incubated and washed. 15 μl TMB was added and 15 μl HCl was added after sufficient development. Absorbance (Optical Density O.D.) was read at 450 nm/620 nm.

[4] = molecular target: T3, mIL1RAcP-Fc (murine, UniProt Q61730 21-359); assay: ELISA, primary supernatant, coated mu-IL-1RAcP-Fc
T3 construct: also called P013_04; P013-04
T3 sequence (looked up): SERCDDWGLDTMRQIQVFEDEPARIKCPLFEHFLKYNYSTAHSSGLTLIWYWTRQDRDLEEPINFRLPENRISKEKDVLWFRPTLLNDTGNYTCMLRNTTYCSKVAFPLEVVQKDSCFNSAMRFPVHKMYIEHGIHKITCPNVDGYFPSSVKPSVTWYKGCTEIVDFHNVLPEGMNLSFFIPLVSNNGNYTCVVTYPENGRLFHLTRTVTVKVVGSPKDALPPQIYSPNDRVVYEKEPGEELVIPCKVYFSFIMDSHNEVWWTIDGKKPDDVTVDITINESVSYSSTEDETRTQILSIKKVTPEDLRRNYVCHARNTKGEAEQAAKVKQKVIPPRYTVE

functional reporter gene assay (% inhibition), 0.04 µg/mL mAb [1]: 1% | functional reporter gene assay (% inhibition), 0.2 µg/mL mAb [1]: 1% | functional reporter gene assay (% inhibition), 1 µg/mL mAb [1]: 10% | functional reporter gene assay (% inhibition), 5 µg/mL mAb [1]: -5% | primary supernatant functional assay (% inh.), NF-kB luciferase reporter [1]: -36% | hu-IL1RaP ELISA (OD) [3]: 2.2 OD | mu-IL1RaP ELISA (OD) [4]: 0.4 OD
B2: P013.S.02.B.G01 (antibody, V domains shown)
VH: QSVEESGGRLVTPGGSLTLTCKVSGFSLSDYDIYWVRQAPGKGLEWIGVIDIENSVYYPTWAKGRFTISKTSTTVDLKITSPTTEDTATYFCARGDYIMTLDLWGQGTLVTVSS
VL: AAVLTQTPSPVSAAVGGTVTISCQASQSVYKNNRLAWYQQKPGQPPKLLIYLASTLASGVPSRFKGSGSGTQFTLTISDLESDDAATYYCAGGYSTISENAFGGGTEVVVK
notes: rabbit monoclonal antibody; also called P013.A.00015.G07

functional reporter gene assay (% inhibition), 0.04 µg/mL mAb [1]: 6% | functional reporter gene assay (% inhibition), 0.2 µg/mL mAb [1]: 0% | functional reporter gene assay (% inhibition), 1 µg/mL mAb [1]: 5% | functional reporter gene assay (% inhibition), 5 µg/mL mAb [1]: 17% | primary supernatant functional assay (% inh.), NF-kB luciferase reporter [1]: -39% | hu-IL1RaP ELISA (OD) [3]: 1.4 OD | mu-IL1RaP ELISA (OD) [4]: 1.1 OD
B4: P013.S.02.B.G03 (antibody, V domains shown)
VH: QSVEESGGRLVTPGTPLTLTCTVSGFSLSSYGMIWVRQAPGEGLEWIGFIGRGGATWYASWVKGRFTISKTSTTVDLKITSPTASDTATYFCARDGDSSDYYAFNLWGQGTLVTVSS
VL: DVVMTQTPASVSEPVGGTVTIKCQASQNIGSNLAWYQQRSGQPPKLLIYGASTLASGVPSRFSGSGSGTEFTLTISGVQSADAATYFCQCSGYDITGVFPFGGGSEVVVK
notes: rabbit monoclonal antibody; also called P013.A.00014.D07

functional reporter gene assay (% inhibition), 0.04 µg/mL mAb [1]: 25% | functional reporter gene assay (% inhibition), 0.2 µg/mL mAb [1]: -2% | functional reporter gene assay (% inhibition), 1 µg/mL mAb [1]: 28% | functional reporter gene assay (% inhibition), 5 µg/mL mAb [1]: 28% | primary supernatant functional assay (% inh.), NF-kB luciferase reporter [1]: 36% | hu-IL1RaP ELISA (OD) [3]: 3 OD | mu-IL1RaP ELISA (OD) [4]: 0.8 OD
B5: P013.S.02.B.H02 (antibody, V domains shown)
VH: B4 VH with V3L, Y31C, G32A, E42K, A55S, K63N, A84T, S85E, S98F, A103T
VL: B4 VL with R39K, S40P, A84T, F87Y, I95T, K110R
notes: rabbit monoclonal antibody; also called P013.A.00015.B10

functional reporter gene assay (% inhibition), 0.04 µg/mL mAb [1]: 4% | functional reporter gene assay (% inhibition), 0.2 µg/mL mAb [1]: 19% | functional reporter gene assay (% inhibition), 1 µg/mL mAb [1]: 47% | functional reporter gene assay (% inhibition), 5 µg/mL mAb [1]: 87% | primary supernatant functional assay (% inh.), NF-kB luciferase reporter [1]: 88% | hu-IL1RaP ELISA (OD) [3]: 3.6 OD | mu-IL1RaP ELISA (OD) [4]: 0 OD
B9: P013.S.02.B.D04 (antibody, V domains shown)
VH: QSLEESGGDLVQPGGSLTLTCKASGFSFSASYWICWVRQAPGKGLEWIGCIYIGGGGRYYASWAKGRFTISKTSSTTVTLQMTSLTAADTATYFCARDPVTSGSDYVYDLWGPGTLVTVAS
VL: AYDMTQTPASVEVAVGGTVTIKCQASESISTWLAWYQQKPGQPPNLLIYRASTLASGVPSRFYGSGYGTEFTLTISGVESADAATYYCQQGYTVNNIDNVFGGGTEVVVK
notes: rabbit monoclonal antibody; also called P013.A.00086.A06

Further lines, the binder ahead of its results:

B1: P013.S.01.B.A03 (antibody, V domains shown)
VH: QEQLEESGGDLVQPEGSLTVTCTASGFSFSFGYYMCWVRQAPGKGLEWIACIYGDSSDTLYANWAKGRFTVSKTSSTTVTLQMTSLTAADTATYFCARYPGGSYYNLWGPGTRVTVSS
VL: ALVMTQTPASVEAAVGGTVTIKCQASQTISINLAWYQQKPGQRPKLLIYYASTLASGVPSRFSGSGSGTEFTLTISGVQSDDAATYYCQQGYTEDNIDNTFGGGTEVVVK
notes: rabbit monoclonal antibody; also called P013.A.00088.A07
functional reporter gene assay (% inhibition), 0.04 µg/mL mAb [1]: 77% | functional reporter gene assay (% inhibition), 0.2 µg/mL mAb [1]: 94% | functional reporter gene assay (% inhibition), 1 µg/mL mAb [1]: 98% | functional reporter gene assay (% inhibition), 5 µg/mL mAb [1]: 99% | primary supernatant functional assay (% inh.), NF-kB luciferase reporter [1]: 95% | EC50 [2]: 0.225 µg/mL | hu-IL1RaP ELISA (OD) [3]: 3.3 OD | mu-IL1RaP ELISA (OD) [4]: 0 OD

B3: P013.S.01.B.F05 (antibody, V domains shown)
VH: QSLEESGGRLVTPGGSLTLTCTVSGIDLSNYAMSWVRQAPGKGLEWIGSVISGGSTYYATWAKGRFTISKTSTTVDLKMTSLTTEDTATYFCARGCPGYNGDKYALDLWGPGTVVTVSS
VL: AFEMTQTPSSVSEPVGGTVTIKCQASQSIHNYLSWYQQKPGQRPKLLIYRASTLASGVPSRFKGSGSGTEFTLTISGVESADAATYYCQQGATSYDIDNAFGGGTEVVVK
notes: rabbit monoclonal antibody; also called P013.A.00087.C06
functional reporter gene assay (% inhibition), 0.04 µg/mL mAb [1]: 44% | functional reporter gene assay (% inhibition), 0.2 µg/mL mAb [1]: 54% | functional reporter gene assay (% inhibition), 1 µg/mL mAb [1]: 70% | functional reporter gene assay (% inhibition), 5 µg/mL mAb [1]: 80% | primary supernatant functional assay (% inh.), NF-kB luciferase reporter [1]: 89% | EC50 [2]: 0.052 µg/mL | hu-IL1RaP ELISA (OD) [3]: 3.6 OD | mu-IL1RaP ELISA (OD) [4]: 1.2 OD

B6: P013.S.01.B.F04 (antibody, V domains shown)
VH: LEQSGGGAEGGLVKPGGSLELCCKASGFSLSTSYWRCWVRQAPGKGLEWIGCIYAGSSDATYYANWVNGRFTLSRDIDQSTGCLQLNSLTAADTAMYYCASGVGFGYFNLWGQGTLVTVSS
VL: ALVMTQTPSPVSAAVGGTVTINCQASEDIYSNLAWFQQKPGQPPKLLIYDASTLASGVPSRFSGSGSGTEFTLTISGLQSDDAATYYCLGVYTHISADNAFGGGTEVVVK
notes: rabbit monoclonal antibody; also called P013.A.00133.A12
functional reporter gene assay (% inhibition), 0.04 µg/mL mAb [1]: 38% | functional reporter gene assay (% inhibition), 0.2 µg/mL mAb [1]: 58% | functional reporter gene assay (% inhibition), 1 µg/mL mAb [1]: 95% | functional reporter gene assay (% inhibition), 5 µg/mL mAb [1]: 96% | primary supernatant functional assay (% inh.), NF-kB luciferase reporter [1]: 97% | EC50 [2]: 0.046 µg/mL | hu-IL1RaP ELISA (OD) [3]: 3.6 OD | mu-IL1RaP ELISA (OD) [4]: 0.3 OD

B7: P013.S.01.B.B05 (antibody, V domains shown)
VH: QSLEESGGRLVTPGTPLTLTCTASGFSLSSYYMSWVRQAPGKGLEWVGIISGSASTYYATWAKGRFTISKTSTTVDLKIASPTTEDTATYFCARTHYAAVAGYGYASRLDLWGQGTLVTVSS
VL: AIEMTQSPPSLSASVGETVRIRCLASEDIYSGISWYQQKPGKPPTLLIYAASNLESGVPPRFSGSGSGTDYTLTIGGVQAEDAATYYCLGGYSYSNTGPTFGAGTKVEIK
notes: rabbit monoclonal antibody; also called P013.A.00030.D07
functional reporter gene assay (% inhibition), 0.04 µg/mL mAb [1]: 52% | functional reporter gene assay (% inhibition), 0.2 µg/mL mAb [1]: 81% | functional reporter gene assay (% inhibition), 1 µg/mL mAb [1]: 93% | functional reporter gene assay (% inhibition), 5 µg/mL mAb [1]: 96% | primary supernatant functional assay (% inh.), NF-kB luciferase reporter [1]: 85% | hu-IL1RaP ELISA (OD) [3]: 3.3 OD | mu-IL1RaP ELISA (OD) [4]: 0.1 OD

B8: P013.S.01.B.A04 (antibody, V domains shown)
VH: QEQLEESGGGLVKPGGTLTLTCKASGIDFSSYYYMCWVRQAPGKGLEWIACIFIGYGDVTWYASWAKGRFTISKASSTTVTLQMTSLTAADTATYFCARALGSSGYRVNLWGPGTLVTVSS
VL: ALVMTQTPSSVSAAVGGTVTINCQASENIYSSLAWYQQKPGQPPKLLIYDASDLASGVPSRFKGSGSGKEFTLTISDLESDDAATYYCQQGYYSGGTDNDVFGGGTEVVVK
notes: rabbit monoclonal antibody; also called P013.A.00085.C03
functional reporter gene assay (% inhibition), 0.04 µg/mL mAb [1]: 47% | functional reporter gene assay (% inhibition), 0.2 µg/mL mAb [1]: 89% | functional reporter gene assay (% inhibition), 1 µg/mL mAb [1]: 97% | functional reporter gene assay (% inhibition), 5 µg/mL mAb [1]: 98% | primary supernatant functional assay (% inh.), NF-kB luciferase reporter [1]: 74% | EC50 [2]: 0.027 µg/mL | hu-IL1RaP ELISA (OD) [3]: 3.4 OD | mu-IL1RaP ELISA (OD) [4]: 0 OD
